Experimental data published in patent US10883980 (TRUSTEES OF PRINCETON UNIVERSITY, dated 2021).

What was measured:
[1] = molecular target: the molecule itself; experiment: Western blot (anti-HA) of lysates from cells expressing ORF3-HA; self-association
[2] = molecular target: the molecule itself; experiment: Western blot (anti-HA) of HepG2C3A lysates; self-association

B1: ORF3-HA (HA-tagged wild-type HEV ORF3 protein, Kernow C1/p6) (other)
chain: MGSPCALGLFCCCSSCFCLCCPRHRPASRLAVVVGGAAAVPAVVSGVTGLILSPSPSPIFIQPTPSPPISFHNPGLELALGSRPAPLAPLGVTSPSAPPLPPAVDLPQLGLRR
notes: Expressed by lentivirus in HepG2C3A cells and tested in cell lysate; also called HEV ORF3-HA; HA-tagged ORF3; not shown: HA tag; the name ORF3-HA puts it at the C-terminus
B1: binds [1].

B2: ORF3[IFI59-61AAA], HA-tagged (other)
chain: MGSPCALGLFCCCSSCFCLCCPRHRPASRLAVVVGGAAAVPAVVSGVTGLILSPSPSPAAAQPTPSPPISFHNPGLELALGSRPAPLAPLGVTSPSAPPLPPAVDLPQLGLRR
notes: Alanine triplet mutant of Kernow C1/p6 ORF3; also called ORF3[IF159-61AAA]; not shown: HA tag
B2: binds [2].
